Measurements from article doi:10.1101/2024.12.09.627598.

The substances below were run against TLR5^N14, a truncated human TLR5 construct containing only the D1-domain binding sites (human) (UniProt O60602) (assay: SPR).
Chain of UniProt O60602 (O60602 21-639): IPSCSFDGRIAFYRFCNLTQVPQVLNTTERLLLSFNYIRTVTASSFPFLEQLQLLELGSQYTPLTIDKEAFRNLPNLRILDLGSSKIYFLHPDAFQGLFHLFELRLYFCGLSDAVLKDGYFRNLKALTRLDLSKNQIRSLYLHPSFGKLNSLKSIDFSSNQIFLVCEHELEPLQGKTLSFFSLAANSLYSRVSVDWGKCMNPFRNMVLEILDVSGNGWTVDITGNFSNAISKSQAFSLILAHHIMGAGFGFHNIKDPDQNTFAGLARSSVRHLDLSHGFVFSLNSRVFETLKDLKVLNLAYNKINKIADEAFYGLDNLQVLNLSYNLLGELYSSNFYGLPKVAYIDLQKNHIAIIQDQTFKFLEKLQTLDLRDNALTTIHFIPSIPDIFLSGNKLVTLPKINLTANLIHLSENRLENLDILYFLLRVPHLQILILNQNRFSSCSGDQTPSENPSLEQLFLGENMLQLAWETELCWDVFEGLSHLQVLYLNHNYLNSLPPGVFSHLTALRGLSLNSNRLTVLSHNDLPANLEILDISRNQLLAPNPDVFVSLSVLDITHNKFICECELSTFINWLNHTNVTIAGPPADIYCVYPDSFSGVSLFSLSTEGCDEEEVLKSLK
In the case of “RhFlaB, flagellin FlaB of Roseburia hominis, wild type (recombinant) (from UniProt G2T5W2 1-506) (natural protein)”, the Kd is reported as 11.4 nM, the koff is reported as 0.000555 s⁻¹ and the kon is reported as 45200 M⁻¹ s⁻¹.
“RhFlaB-PIM, primary interface mutant of RhFlaB (Q88A, R89A, Q96A) (from UniProt G2T5W2 1-506) (natural protein)” showed a Kd of 78 nM, a koff of 0.000691 s⁻¹ and a kon of 9090 M⁻¹ s⁻¹.
For “RhFlaB-ΔD0, RhFlaB truncated to remove the D0 domain (domain or fragment)”, the kon was 75500 M⁻¹ s⁻¹.
Substance “StFliC, flagellin FliC of Salmonella enterica serovar Typhimurium, wild type (from UniProt P06179 1-495) (natural protein)” has a Kd of 16.3 nM, a koff of 0.000192 s⁻¹ and a kon of 11300 M⁻¹ s⁻¹.
“StFliC-PIM, primary interface mutant of StFliC (Q89A, R90A, Q97A) (natural protein)” was tested, and the Kd was 585 nM, the koff was 0.011 s⁻¹ and the kon was 18800 M⁻¹ s⁻¹.
